The supplement of paper PMC10567573

B1: MLL5 (parent)
chain: TYLCERCQPRNLDKERAVLLQRRK

Variants of: B1
Experiment: protein stability index of a GFP-peptide fusion (GPS, HEK-293T) (PSI 1-6); higher = more stable
Details: c terminus: a fixed tail appended
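Further: lentivirally expressed fusions sorted by FACS into six bins by GFP to DsRed ratio, PSI derived from sequencing read proportions per bin multiplied by bin number.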

Question: With TYLCERCQPRNLDKERGVLLQRRK as the variant, how does the protein stability index read?
Answer: 1.78

Question: Which protein stability index does the source give for TYLCERCQPRNLDKERKVLLQRRK here?
Answer: 2.26

Question: Which protein stability index does the source give for TYLCERCQPRNLDKERTVLLQRRK here?
Answer: 1.95

Question: For TYLCERCQPRNLDKERAVLPQRRK, which protein stability index is on record?
Answer: 2.08

Question: With TYLPERCQPRNLDKERAVLLQRRK as the variant, how does the protein stability index read?
Answer: 4.26
